Data reported in patent publication US20200222478A1 (published 2020).

Target: T1, HLA-B*08:01 (human, biotinylated heavy chain)
T1 construct: Conditional HLA class I complex first loaded with a UV-labile peptide, exchanged for the test peptide after UV; also called conditional HLA class I complex
Test: UV peptide exchange + HLA class I ELISA
Description: (§1) The HLA class I ELISA is an enzyme immunoassay based on the detection of beta2-microglobulin (B2M) of (peptide-stabilized) HLA class I complexes. To this end streptavidin was bound onto polystyrene microtiter wells. […] Non-bound material was removed by washing. Subsequently, horseradish peroxidase (HRP)-conjugated antibody to human B2M was added. […] In the latter case B2M was removed during the washing step. After removal of non-bound HRP conjugate by washing, a substrate solution was added to the wells. A coloured product formed in proportion to the amount of intact HLA complex present in the samples. After the reaction was terminated by the addition of a stop solution, absorbance was measured in a microtiter plate reader.

In order of falling “exchange rate vs Pos peptide” value:
1. NSKMALNSL [P35 9-mer peptide (TMPRSS2-ERG fusion)]  13.7%
2. FPVGAEGTF [P27 9-mer peptide (FAM126B-ORC2 fusion)]  6.4%
3. STRRAVRRM (Synthetic 9-mer fragment) [P16 9-mer peptide (MSMB-NCOA4 fusion)]  6.2%
4. NMVENGCYL [P59 9-mer peptide (FOXA1 (F254V))]  5.5%
5. IQYSCMGLM [P50 9-mer peptide (AR (W742C))]  4.7%
6. FFKRAAEGF [P77 9-mer peptide (AR-V3 splice variant)]  3.4%
7. GVLRRLLCR [P37 9-mer peptide (TSTD1-F11R fusion)]  3.3%

Target: T2, HLA-A*02:01 (human, biotinylated heavy chain)
T2 construct: Conditional HLA class I complex first loaded with a UV-labile peptide, exchanged for the test peptide after UV; also called conditional HLA class I complex
Test: UV peptide exchange + HLA class I ELISA
Description: as §1

In order of falling “exchange rate vs Pos peptide” value:
1. GVLRRLLCR [P37 9-mer peptide (TSTD1-F11R fusion)]  12.5%
2. NSKMALNSL [P35 9-mer peptide (TMPRSS2-ERG fusion)]  12.5%
3. NMVENGCYL [P59 9-mer peptide (FOXA1 (F254V))]  11.9%
4. STRRAVRRM (Synthetic 9-mer fragment) [P16 9-mer peptide (MSMB-NCOA4 fusion)]  10.4%
5. FPVGAEGTF [P27 9-mer peptide (FAM126B-ORC2 fusion)]  10%
6. IQYSCMGLM [P50 9-mer peptide (AR (W742C))]  8.8%

Target: T3, HLA-B*07:02 (human, biotinylated heavy chain)
T3 construct: Conditional HLA class I complex first loaded with a UV-labile peptide, exchanged for the test peptide after UV; also called conditional HLA class I complex
Test: UV peptide exchange + HLA class I ELISA
Description: as §1

In order of falling “exchange rate vs Pos peptide” value:
1. FFKRAAEGF [P77 9-mer peptide (AR-V3 splice variant)]  14.2%
2. STRRAVRRM (Synthetic 9-mer fragment) [P16 9-mer peptide (MSMB-NCOA4 fusion)]  13.7%
3. NSKMALNSL [P35 9-mer peptide (TMPRSS2-ERG fusion)]  12.1%
4. IQYSCMGLM [P50 9-mer peptide (AR (W742C))]  10.4%
5. FPVGAEGTF [P27 9-mer peptide (FAM126B-ORC2 fusion)]  7.8%
6. NMVENGCYL [P59 9-mer peptide (FOXA1 (F254V))]  7.5%

Target: T4, HLA-A*24:02 (human, biotinylated heavy chain)
T4 construct: Conditional HLA class I complex first loaded with a UV-labile peptide, exchanged for the test peptide after UV; also called conditional HLA class I complex
Test: UV peptide exchange + HLA class I ELISA
Description: as §1

In order of falling “exchange rate vs Pos peptide” value:
1. FFKRAAEGF [P77 9-mer peptide (AR-V3 splice variant)]  1.7%
2. STRRAVRRM (Synthetic 9-mer fragment) [P16 9-mer peptide (MSMB-NCOA4 fusion)]  0.8%
3. FPVGAEGTF [P27 9-mer peptide (FAM126B-ORC2 fusion)]  0.7%
4. NSKMALNSL [P35 9-mer peptide (TMPRSS2-ERG fusion)]  0.2%
5. IQYSCMGLM [P50 9-mer peptide (AR (W742C))]  0.1%
6. GVLRRLLCR [P37 9-mer peptide (TSTD1-F11R fusion)]  -0.1%
7. NMVENGCYL [P59 9-mer peptide (FOXA1 (F254V))]  -0.5%

Target: T5, HLA-A*03:01 (human, biotinylated heavy chain)
T5 construct: Conditional HLA class I complex first loaded with a UV-labile peptide, exchanged for the test peptide after UV; also called conditional HLA class I complex
Test: UV peptide exchange + HLA class I ELISA
Description: as §1

In order of rising “exchange rate vs Pos peptide” value:
1. FFKRAAEGF [P77 9-mer peptide (AR-V3 splice variant)]  2.8%
2. NSKMALNSL [P35 9-mer peptide (TMPRSS2-ERG fusion)]  4.2%
3. FPVGAEGTF [P27 9-mer peptide (FAM126B-ORC2 fusion)]  4.5%
4. NMVENGCYL [P59 9-mer peptide (FOXA1 (F254V))]  4.5%
5. IQYSCMGLM [P50 9-mer peptide (AR (W742C))]  5.5%
6. STRRAVRRM (Synthetic 9-mer fragment) [P16 9-mer peptide (MSMB-NCOA4 fusion)]  6.1%
7. GVLRRLLCR [P37 9-mer peptide (TSTD1-F11R fusion)]  6.4%

Target: T6, HLA-A*01:01 (human, biotinylated heavy chain)
T6 construct: Conditional HLA class I complex first loaded with a UV-labile peptide, which is cleaved by UV and exchanged for the test peptide; captured on streptavidin by its biotinylated heavy chain; also called conditional HLA class I complex
Test: UV peptide exchange + HLA class I ELISA
Description: as §1

In order of falling “exchange rate vs Pos peptide” value:
1. STRRAVRRM (Synthetic 9-mer fragment) [P16 9-mer peptide (MSMB-NCOA4 fusion)]  5.5%
2. FPVGAEGTF [P27 9-mer peptide (FAM126B-ORC2 fusion)]  4.8%
3. NSKMALNSL [P35 9-mer peptide (TMPRSS2-ERG fusion)]  2.5%
4. IQYSCMGLM [P50 9-mer peptide (AR (W742C))]  2.3%
5. NMVENGCYL [P59 9-mer peptide (FOXA1 (F254V))]  2.2%
6. FFKRAAEGF [P77 9-mer peptide (AR-V3 splice variant)]  1.9%
7. GVLRRLLCR [P37 9-mer peptide (TSTD1-F11R fusion)]  1.4%
